Measurements from article PMC8411030.

Molecular target: N-terminal domain of NOEY2 (NOEY2-N), LexA fusion (pGilda/LexA-NOEY2-N) (human) (UniProt O95661)
Test: two-hybrid

UniProt O95661, sequence (O95661 whole entry, the tested form may be a part): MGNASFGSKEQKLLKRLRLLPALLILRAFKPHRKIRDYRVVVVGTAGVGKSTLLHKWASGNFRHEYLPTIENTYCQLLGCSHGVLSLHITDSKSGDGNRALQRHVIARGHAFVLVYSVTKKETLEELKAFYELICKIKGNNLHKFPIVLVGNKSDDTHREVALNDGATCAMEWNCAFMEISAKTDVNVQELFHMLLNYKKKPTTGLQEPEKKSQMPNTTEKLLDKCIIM

“VEGFR-2, B42 fusion (pJG4-5) (from UniProt P35968 1-1356) (receptor)” showed a β-galactosidase activity of 92.2 unit.
